Test results reported in IntAct's records for PubMed 20095964.

B1: Junctophilin-2 (Mus musculus), Q9ET78 (parent)
chain: MSGGRFDFDDGGAYCGGWEGGKAHGHGLCTGPKGQGEYSGSWNFGFEVAGVYTWPSGNTFEGYWSQGKRHGLGIETKGRWLYKGEWTHGFKGRYGIRQSTNSGAKYEGTWNNGLQDGYGTETYADGGTYQGQFTNGMRHGYGVRQSVPYGMAVVVRSPLRTSLSSLRSEHSNGTVAPDSPAADGPMLPSPPVPRGGFALTLLATAEAARPQGLFTRGTLLGRLRRSESRTSLGSQRSRLSFLKSELSSGASDAASTGSLAEGAEGPDDAAAPFDADIDATTTETYMGEWKNDKRSGFGVSERSSGLRYEGEWLDNLRHGYGRTTLPDGHREEGKYRHNVLVKGTKRRVLPLKSSKVRQKVEHGVEGAQRAAAIARQKAEIAASRTSHAKAKAEAAEQAALAANQESNIARTLAKELAPDFYQPGPEYQKRRLLQEILENSESLLEPPERGLGTGLPERPRESPQLHERETPQPEGGPPSPAGTPPQPKRPRPGASKDGLLSPGSWNGEPGGEGSRPATPSDGAGRRSPARPASEHMAIEALQPPPAPSQEPEVAMYRGYHSYAVRTGPPEPPPLEDEQEPEPEPEPEVRRSDSAPPSPVSATVPEEEPPAPRSPVPAKQATLEPKPIVPKAEPKAKARKTEARGLSKAGAKKKGRKEVAQAKEAEVEVEEVPNTVLICMVILLNIGLAILFVHLLT
partner: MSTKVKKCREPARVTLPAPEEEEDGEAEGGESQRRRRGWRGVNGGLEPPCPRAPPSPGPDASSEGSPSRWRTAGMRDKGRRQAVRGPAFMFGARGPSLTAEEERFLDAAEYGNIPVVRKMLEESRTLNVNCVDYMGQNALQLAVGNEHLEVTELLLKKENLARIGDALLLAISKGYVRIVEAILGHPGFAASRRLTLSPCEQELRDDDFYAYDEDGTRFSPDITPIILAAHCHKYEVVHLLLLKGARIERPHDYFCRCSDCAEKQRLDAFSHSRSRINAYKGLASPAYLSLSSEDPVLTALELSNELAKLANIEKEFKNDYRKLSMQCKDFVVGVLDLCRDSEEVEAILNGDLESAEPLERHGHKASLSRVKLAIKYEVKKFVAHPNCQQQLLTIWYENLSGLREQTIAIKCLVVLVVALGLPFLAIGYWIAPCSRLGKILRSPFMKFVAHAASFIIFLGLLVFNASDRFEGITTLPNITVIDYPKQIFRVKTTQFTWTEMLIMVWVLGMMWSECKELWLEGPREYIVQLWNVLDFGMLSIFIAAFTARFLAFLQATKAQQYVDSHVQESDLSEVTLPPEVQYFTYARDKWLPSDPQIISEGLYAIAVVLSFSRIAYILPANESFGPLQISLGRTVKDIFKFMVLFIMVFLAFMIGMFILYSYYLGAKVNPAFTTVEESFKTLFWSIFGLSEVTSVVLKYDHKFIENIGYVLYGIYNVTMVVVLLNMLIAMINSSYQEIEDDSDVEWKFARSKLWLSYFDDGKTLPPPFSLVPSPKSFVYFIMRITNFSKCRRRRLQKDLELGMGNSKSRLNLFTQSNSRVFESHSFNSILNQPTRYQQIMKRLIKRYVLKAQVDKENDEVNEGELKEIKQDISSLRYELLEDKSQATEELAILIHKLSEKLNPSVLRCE

Variants of: B1
Conditions: with trpc3_mouse Trpc3, Q9QZC1

effect of a mutation on the interaction | Variant
decreasing interaction | S165F
